Source: the supplement of paper PMC9170038

Tested on: K4 kissing-loop RNA reporter
Test: apparent KD of K4 kissing-loop reporter; higher = weaker reporter binding
Conditions: Eterna round: R107
Description: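 RNA-MaP round R107: designed RNA switches with theophylline, tryptophan, arginine or FMN aptamers are transcribed on-chip within common flanks. They are titrated with a labelled K4 kissing-loop RNA reporter in RNA-MaP buffer (100 mM Tris pH 7.5, 80 mM KCl, 4 mM MgCl2), without ligand or with the indicated ligand. Median apparent KD per design.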

[1] = input ligand: theophylline 20 uM
[2] = input ligand: tryptophan 2.4 mM
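Also: bound reporter read as fluorescence of individual clusters on recovered sequencing chips by microscopy, with normalized cluster intensities fitted with a binding model.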

Row | Sequence | apparent KD of K4 kissing-loop reporter (input ligand: FMN 200 uM) | apparent KD of K4 kissing-loop reporter (input ligand: arginine 13.2 mM) | apparent KD of K4 kissing-loop reporter (input ligand: none) | apparent KD of K4 kissing-loop reporter [1] | apparent KD of K4 kissing-loop reporter [2]
1 | UGAUACCAGACGGCCGCCACUCCCGUAAGUCAAAGACUUACGAAGAGAAUCGUCCAGUGAUGUUGGAGGACCGGGUCUGGUAUCU [FiskerMod 11 - Jieux - Exclusion - Tryptophan B] | 680 nM | 664 nM | 818 nM | 600 nM | 785 nM
2 | UGUCAUUGGUCGGCCGCCACUAAAUAAAAGAGUGAUGUUCUUAAGACGGAUCGAAAGAUCUGUCAUAGGACCGGGACCGAUGACU [TrypBS 21 #SwitchBubble #StaticStem] | 1200 nM | 891 nM | 1080 nM | 888 nM | 667 nM
3 | AAUAAGUGUCAGCGAGUGAUGUUCGACGAUACCAGACUCGAUAGAGUCCCUUGGCAGCGUAACGCAUGCCAAACUGGCACAAUAA [#SwitchBubble 8 #K4Early] | 444 nM | 444 nM | 611 nM | 507 nM | 450 nM
4 | GACGGGUUGCUGCUCAAUCCGUCGCAUGAUCGAGGACCGGUACGGCCGCCACUCGAGGCCAUGCCGUACGAGUGAUGUUCGUGCG [Xeerlaus] | 387 nM | 327 nM | 324 nM | 388 nM | 190 nM
5 | UUAUAUUUUAUAUUUAGUAGAGCUCUAGCUCGAGGACCGGUACGGCCGCCACUCGAGUGAUGUUCGAGUGGGUGAGCUCUACAUU [AK3 EXC Tryptophan A] | 124 nM | 95.7 nM | 103 nM | 101 nM | 363 nM
6 | AUGCGCGCGGCGGCCGCCACUCGCAUGAGAGUGAUGUUCUCGCCGUGCCCGUAAGGGUGCGGUGUGAGGACCGGGCCGGGCUGCG [#2 Same State - Tryptophan B Attempt #20 (HarryS)] | 204 nM | 107 nM | 227 nM | 37.5 nM | 239 nM
7 | UACAGGGCGAGUGAUGUUUGCUCAUGUGAUACCAGUGCCAUCCAACACCCUUGGCAGCAUGCGGGCAGUGAUGUUGUCCUUGGUU [Exclusion Theophylline A GF11] | 294 nM | 223 nM | 280 nM | 278 nM | 249 nM
8 | UGCCGGGCUGUACGUUACUUAAAUCGCGAUACCAGCGAUACAAUCCGCCCUUGGCAGCGCAGUGAUGUUGCGCGGUCAUUACGGG [theeternabot_exclusion_KL_Theo_A_27] | 100 nM | 90.5 nM | 95.8 nM | 103 nM | 91.4 nM
9 | CCUAUCUCAUACGAUACCAGUGAAUUUAUGUUUAUUAGCAGUGAUGUUGCGUUCCAAGUACACCCUUGGCAGCGUAUGGGAUAGG [Ex Theophylline B K4 24] | 139 nM | 168 nM | 147 nM | 143 nM | 113 nM
10 | AGGCACGAGCAAGGAUAUCGAGUAGAGUGAUGUUCUGCCUGGGUUGGCUCGAAAGGGCCUUCCCAGCGAGAAGGUGCUCGUGCCU [#2 Same State - FMN A Attempt #14 (HarryS)] | 219 nM | 325 nM | 300 nM | 1040 nM | 619 nM
11 | UGUCAUUGGUCUGAUACCAGAAGAAAUCUGGAGUGAUGUUCCAAGUCGACAAAAUGUCGCUUCCCUUGGCAGCAGACCGAUGACU [TheoBS 23 #SwitchBubble 13 #StaticStem] | 393 nM | 331 nM | 377 nM | 222 nM | 349 nM
12 | GCAAACCUCAGUGAUGUUGAGAAAUCGGAAGGAGCGCGUGAAAACGCAGGUAGGUCGCCGACACAUGAAGUAUCUUCGUGUUUGC [Arginine A K4 22] | 276 nM | 272 nM | 316 nM | 328 nM | 243 nM
13 | AACUGUCAAGGCCAACAUUACUGAGGUGAUACCAGCAUCGAAAGAUGCCCUUGGCAGCACCAACUUGCAGUGAUGUUGCAAGUAA [BrourdMod 13 - Jieux - Exclusion - Theophylline A] | 231 nM | 203 nM | 234 nM | 307 nM | 225 nM
14 | CCCUCACGAGUGAUGUUCGUAGGGUACAGUCAGGAUAUCAUGCGGUUGAGAAGGGACAGGAAGGGCGGCGGCGGGUUGCUCACCG [Atera] | 154 nM | 163 nM | 192 nM | 204 nM | 150 nM
15 | AGGAUCCACCAGUGAUGUUGGAAAUACUCCAAGGAUAUGACGAAAGUCAGAAGGUGGUAGACUGGACAAAGUCCAGUCGGAUCCA [FmnA 28 #SwitchBubble #K4Early] | 534 nM | 247 nM | 602 nM | 486 nM | 346 nM
16 | UGUAUGUGAUUUGAUACCAGACCAGCUGGUGGUAUAUGAGUGAUGUUCAUGUUGGUGUGGGUCCCUUGGCAGCAAAUCGCAUACU [KL-SSTheoB9] | 242 nM | 161 nM | 237 nM | 164 nM | 183 nM
17 | UGUACCGAGUCAGGAUAUAGCGUCGAAAGACGAAUCCUAGUGAUGUUAGGGAUCUGCGAAAGCAGUCUAGAAGGGACUUGGUACU [FmnBS 26 A19+U68] | 275 nM | 278 nM | 295 nM | 293 nM | 291 nM
18 | UGAUACCAGACGGCCGCCACUCCUGCAGUCAAAGACUGCAAAGGAAUAUUCGUCCAGUGAUGUUGGAGGACCGGGUCUGGUAUCU [TrypBX 11 #SwitchBubble #Palindromic #StaticStem] | 974 nM | 698 nM | 1210 nM | 701 nM | 844 nM
19 | GCCUGGGCCCGAAGGAGCGCCGUGACAGGUUACUGCAUUGAGCAGUGAUGUUGCUCAAUCUGGCAGGUAGGUCGCGGGCCCAGGC | 120 nM | 100 nM | 102 nM | 108 nM | 93.1 nM
20 | AAAUAAAUGGCGGCCGCCACUGAACGCCUCCGCGUGGGUAUAUAGUGAUGUUAUAUGGCCGCCAUCAGGACCGGGCCAAAUAAAA [#08 K4 Tryptophan B Same State] | 330 nM | 259 nM | 502 nM | 377 nM | 222 nM
21 | GGAUAGGACAGAGGAUAUGGCAGUCUACAAAGUAGGCUGAAAUAAAUCCUUGAAUGGAGUGAUGUUCCAGAAGGCUGUCCUAUCG [FmnBX 23 #SwitchBubble #StaticStem #Palindromic] | 911 nM | 156 nM | 158 nM | 169 nM | 172 nM

Row | Sequence | apparent KD of K4 kissing-loop reporter (input ligand: FMN 200 uM) | apparent KD of K4 kissing-loop reporter (input ligand: arginine 13.2 mM) | apparent KD of K4 kissing-loop reporter (input ligand: none) | apparent KD of K4 kissing-loop reporter [1] | apparent KD of K4 kissing-loop reporter [2]
22 | AAAGAUGCGUCGGCCGCCACUGUUGCCAGUGAUGUUGGCAUGUAGAUGCAGUGAUGUUGCGUUUUCAGGACCGGGACGUAAGAUG [5th] | 261 nM | 253 nM | 302 nM | 246 nM | 134 nM
23 | AAGGUUCGUGGAAGGAGCGCCCGUGCGACUCGUUCACUAAGUGAAGUCCGAGUGAUGUUCGGGCAGGUAGGUCGCCACGGGCAAA [Atonenge] | 164 nM | 133 nM | 152 nM | 153 nM | 153 nM
24 | UUUUUGGUUUAGAGUGAUGUUCCUUGUUUUCGAGGACCGGUACGGCCGCCACUCGAAAAGAAAAGAAAAGAAAAGAGUGAUGUUU [BDazzled - #1 SS Tryptophan A] | 342 nM | 252 nM | 362 nM | 311 nM | 258 nM
25 | ACCUACGAUCACAAUAGUGAUUGUAGGAACUAGGAUAUGCUGAAAAGCAGAAGGAGUGAUGUUCCGUCAUGAAUAACAUGACAAA [FmnAX 5 #OpenEnded #K4Late #CoaxialStacking] | 251 nM | 525 nM | 495 nM | 594 nM | 336 nM
26 | UCCUAGGUUCGUCGGCGAAAGCCCUGCGAAGGAGCGUGCGAAAGCACAGGUAGGUCGCGCAGUGAUGUUGCACCUAGGUAAUAAA [#SwitchBubble 23 #K4Late] | 1030 nM | 672 nM | 344 nM | 150 nM | 781 nM
27 | AAACCAAUCAGAGGAUAUUCUUUAUUCGACAUAAAUUUCUAUAAAUUGCAGUGAUGUUGCAAUAUAGGAGAAGGCUGAUUGACAA [Exclusion FMN B Gf 12] | 239 nM | 199 nM | 204 nM | 229 nM | 223 nM
28 | CGCCGCAAGGCGGUCCUGCCCACUCCGGAAGGAGCGCCCGCAAGGGCAGGUAGGUCGCCGGAGUGAUGUUCCGGUGGCAGGACCG [#2 Exclusion - Arginine A Attempt #4 (Inspired by Omei)] | 477 nM | 112 nM | 422 nM | 264 nM | 245 nM
29 | GAAUUGACGAGUGAUGUUCGUCCACAAUACCGAGGACCGGUACGGCCGCCACUCGAGCAAUGUGAAUAGGGUCGCGUUUUGCAGU | 294 nM | 266 nM | 295 nM | 352 nM | 187 nM
30 | GGUAGCAUGGCGGCCGCCACUAAGAGAGUGAUGUUCUCUUAGUUUUUUGAUAUAUUAUCAAUUCUUAGGACCGGGCCAUGCUACC | 121 nM | 79.9 nM | 94.7 nM | 98.9 nM | 100 nM
31 | GUGCAGUGAUGUUGCACGAGGAAAGACGAUACCAGCCGUAAAUAAGGCCCUUGGCAGCGUGGGCUAGCACAAAAUAUGCUAGUCU [Laleingeat] | 97.9 nM | 99.6 nM | 107 nM | 68.4 nM | 117 nM
32 | UGACUACAUAAGGAAUAAUCCUAGUGAUGUUAGGAUAUGCUGAUAAGCAGAAGGAACGGAGAUCGAAGGAUCUCAUAUGUAGUCU [whbob_Ex_FMNA__2th194] | 275 nM | 101 nM | 103 nM | 121 nM | 103 nM
33 | AAUAAGCAUGGAAGGAGCGUAGUCCAGUGAUGUUGGAGUUAAAUACCAGUGAUGUUGGUUAUACAGGUAGGUCGCCAUAAAGCUU [Exclusion Arginine B Gf 6] | 92.4 nM | 64.8 nM | 89.3 nM | 83.2 nM | 75.4 nM
34 | CGGAGUGAUGUUCCGUUAAUUAAUUAUUUACGAGGACCGGUACGGCCGCCACUCGAUUUUGCUUUUAUUUAAUGUUUGGAAAUUU [JR_SSTryptoA_Sub006] | 135 nM | 143 nM | 142 nM | 146 nM | 101 nM
35 | UUAUUAAUCGCAGAUACCAGUCCAGAAUGAAUACUAUAGUGAUGUUAUAAUAAAGGGAAGGACCCUUGGCAGCUGUAAUAUAUUU [AstrosSsTheB#3] | 371 nM | 278 nM | 401 nM | 240 nM | 280 nM
36 | CCCGUACCAGUGAUGUUGGUAUGGUCUGAUACCAGUCUGUAGUCGGGCCCUUGGCAGCAGACCCUUGCCAAGGUGACGACUCCGG [Qu] | 128 nM | 146 nM | 126 nM | 131 nM | 132 nM
37 | UGUGGAGAAUAUGAUACCAGCAGUGAGAGAGAGGAAGUAUAGUGAUGUUAUAUGAGAGAAUGCCCUUGGCAGCAUAUGAAGAAGG [SSTheophylB.E] | 174 nM | 120 nM | 148 nM | 138 nM | 115 nM
38 | UAAUAAAUUCCAGCUGUAUCACUCUUCGAAGGAGCGGACGAAAGUCCAGGUAGGUCGCGAAGAGUGAUGUUCUUUGCGGCGCUGG [Omei KL Arginine A Exc A v6] | 82.3 nM | 68.4 nM | 94.8 nM | 76.6 nM | 57.1 nM
39 | GUGAAGGAGCUGCAGUGAUGUUGCAGAGACUAGGAUAUCAGGAAACUGAGAAGGAGUCAACUCCUUCACCUAGACAACAUCACUA [[F]''-[K1]-[K2]-[F1]-[F2]-[F2]'-[F1]'-[K]'_Design2] | 148 nM | 151 nM | 128 nM | 269 nM | 187 nM
40 | AGCGAUGUUUUCUCUAAGAGUGAUGUUUUUCGAGGACCGGUACGGCCGCCACUCGAAUAAAGAGUGUGGUAGUGAGCUGUUGACU [qqmullin] | 622 nM | 256 nM | 451 nM | 442 nM | 278 nM
41 | GGUUAAAGCACCCGGAGUGAUGUUCCGGAUACCAGCAAACCAACUUGCCCUUGGCAGCCGUAUAGCGUCCGGUGGGCCGAGCAUA [Raarce] | 94.9 nM | 94.3 nM | 98.4 nM | 97.6 nM | 92.7 nM
42 | UAAUAUCCGUCGGCCGCCACUCACCAGUGAUGUUGGAGGAGUGAUGUUCCACGAGUGAUGUUCGAGAGGACCGGGACGGACGAUG [6th] | 134 nM | 114 nM | 126 nM | 108 nM | 103 nM
